Experimental data from PMC3056158.

Molecular target: SPNct, C-terminal glycohydrolase domain of Streptococcus pyogenes beta-NAD+ glycohydrolase (SPN), residues 191-451 (Streptococcus pyogenes)
Test: crystal structure

B1: Immunity factor for SPN (IFS), full length, residues 1-161 (natural protein)
chain: MYKVPKGLEHYQKMFQKEVTVNDLKKYLIGSDKEYRITRRDSYMGDISDPEVILEYGVYPAFIKGYTQLKANIEEALLEMSNSGQALDIYQAVQTLNAENMLLNYYESLPFYLNRQSILANITKALKDAHIREAMAHYKLGEFAHYQDTMLDMVERTIETF
modifications: selenomethionine in place of methionine in the derivative used for MAD phasing
  stoichiometry N: 1
